Molecular target: full-length recombinant human BAX (human) (UniProt Q07812)
Assay: not stated; data not shown; BAX stocks at high concentrations

stoichiometry N: 2
Substance: full-length recombinant human BAX (from UniProt Q07812 1-192) (natural protein)
